Reference: patent US11198713B2, “Agents modulating beta-catenin functions and methods thereof” (FOG PHARMACEUTICALS, INC., priority 2017, dated 2021)
Numbered stars: 1 amine (or outer) side, 2 acyl side, 3 side chain; on linkers, the order of the positions; unused ones are H or OH. Bridge positions count the residues as written; N and C are the ends. Square brackets hold non-standard residues; d marks the D form. Primed or numbered codes have the meaning given here. MB(4) = Monomer B (PyrS), N-Alloc pyrrolidine stapling residue, (S)-3-amino-1-(allyloxycarbonyl)pyrrolidine-3-carboxylic acid, C=CCOC(=O)N1CC[C@@](N[*:1])(C(=O)[*:2])C1; R7″ = stapling residue, (R)-2-(6-heptenyl)alanine (drawn only), C=CCCCCC[C@@](C)(N[*:1])C(=O)[*:2]; R4″ = stapling residue, (R)-2-(3-butenyl)alanine (drawn only), C=CCC[C@@](C)(N[*:1])C(=O)[*:2]; MB(15) = Monomer B = PyrS (PS), pyrrolidine stapling residue (Alloc on ring N); MB(11) = Monomer B (PyrS), pyrrolidine-bearing Alloc-olefin stapling residue; ME = Monomer E = RgN, acyclic alkyl-N(Alloc) olefin stapling residue; R7 = (R)-2-(6-heptenyl)alanine, C=CCCCCC[C@@](C)(N[*:1])C(=O)[*:2]; R6 = (R)-2-(5-hexenyl)alanine, C=CCCCC[C@@](C)(N[*:1])C(=O)[*:2]; MB(5) = Monomer B (PyrS), N-Alloc pyrrolidine stapling residue; R4 = (R)-2-(3-butenyl)alanine, C=CCC[C@@](C)(N[*:1])C(=O)[*:2]; MB(14) = Monomer B = PyrS, Alloc-pyrrolidine stapling residue; MF = Monomer F (SdN), acyclic alkyl-N(Alloc) stapling residue; MA = Monomer A (Az), N-Alloc azetidine stapling residue; S7 = C[C@@](CCCCCC=[*:3])(N[*:1])C(=O)[*:2]; Arg(Me2a) = CN(C)C(=N)NCCC[C@H](N)C(=O)O; Arg(Me2s) = CN=C(NC)NCCC[C@H](N)C(=O)O; 1Nal = N[C@@H](Cc1cccc2ccccc12)C(=O)O; hArg = N=C(N)NCCCC[C@H](N)C(=O)O; R8 = C=CCCCCCC[C@@](C)(N)C(=O)O; S8 = C=CCCCCCC[C@](C)(N)C(=O)O; αMeL = CC(C)C[C@](C)(N)C(=O)O; R5 = C=CCCC[C@@](C)(N)C(=O)O; αMeV = CC(C)[C@](C)(N)C(=O)O; S5 = C=CCCC[C@](C)(N)C(=O)O; Aib = CC(C)(N)C(=O)O

T1: full-length beta-catenin (UniProt P35222 2-781, limits assumed)
T1 construct: mature; also called full-length ß-Catenin; β-catenin
T1 sequence (looked up): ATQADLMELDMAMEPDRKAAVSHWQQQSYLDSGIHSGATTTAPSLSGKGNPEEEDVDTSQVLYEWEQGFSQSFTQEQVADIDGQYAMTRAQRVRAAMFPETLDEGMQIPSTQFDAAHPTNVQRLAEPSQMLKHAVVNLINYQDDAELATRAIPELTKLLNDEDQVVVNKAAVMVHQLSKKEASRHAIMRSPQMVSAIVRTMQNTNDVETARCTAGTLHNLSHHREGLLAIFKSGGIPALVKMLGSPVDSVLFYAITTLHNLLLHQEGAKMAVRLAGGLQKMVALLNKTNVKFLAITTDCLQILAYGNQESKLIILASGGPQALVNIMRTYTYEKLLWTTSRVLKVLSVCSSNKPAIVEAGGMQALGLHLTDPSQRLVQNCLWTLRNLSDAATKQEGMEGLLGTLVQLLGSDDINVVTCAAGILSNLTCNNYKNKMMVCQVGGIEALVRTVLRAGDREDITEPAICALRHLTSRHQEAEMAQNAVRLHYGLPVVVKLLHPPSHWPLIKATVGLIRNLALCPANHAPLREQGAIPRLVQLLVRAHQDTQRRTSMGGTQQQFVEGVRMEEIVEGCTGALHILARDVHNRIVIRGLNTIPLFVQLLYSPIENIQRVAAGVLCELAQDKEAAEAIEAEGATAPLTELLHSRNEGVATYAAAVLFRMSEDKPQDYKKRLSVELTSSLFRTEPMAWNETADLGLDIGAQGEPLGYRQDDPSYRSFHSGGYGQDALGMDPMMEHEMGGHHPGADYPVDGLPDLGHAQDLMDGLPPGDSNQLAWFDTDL

B1: FP0495c (peptide)
peptide: Ac-A[R7]ILDAHI[MD]RVW-NH2
modifications: staple 2-9; not fully specified; printed as Ac-A-R7-I-L-D-A-H-I-MD-R-V-W-NH2; also: carbamate staple R7/MD (-N(R')-C(O)-O-)
B2: FP0628_aib (peptide)
peptide: Ac-A[Aib]ILDAHI[Aib]RVW-NH2
SMILES: CC[C@H](C)[C@H](NC(=O)[C@H](Cc1c[nH]cn1)NC(=O)[C@H](C)NC(=O)[C@H](CC(=O)O)NC(=O)[C@H](CC(C)C)NC(=O)[C@@H](NC(=O)C(C)(C)NC(=O)[C@H](C)NC(C)=O)[C@@H](C)CC)C(=O)NC(C)(C)C(=O)N[C@@H](CCCNC(=N)N)C(=O)N[C@H](C(=O)N[C@@H](Cc1c[nH]c2ccccc12)C(N)=O)C(C)C
B3: FP0212s Isomer 2 (peptide)
peptide: PAXILDAHVXRVW
modifications: not fully specified; Ac-P-A-R5-I-L-D-A-H-V-S8-R-V-W-NH2; hydrocarbon staple R5/S8

molecular target: T1, full-length beta-catenin; experiment: competition FP, grade of FP EC50 (++: 100-500 nM)
Protocol: (§1) In some embodiments, a competition fluorescence polarization assay is used to assess binding of provided compounds to beta-catenin. In an exemplary procedure, solutions of provided compounds, e.g., provided stapled peptides, were prepared in a buffer (e.g., 50 mM Tris pH 8.0, 250 mM NaCl, 2% glycerol, 0.5 mM EDTA, 0.02% w/v sodium azide) using a 3-fold serial dilution from 5 µM. Probe solution (15 nM full-length ß-Catenin, 20 nM FITC labeled peptide in buffer) was prepared and incubated for a period of time, e.g., 5 minutes, and the a volume, e.g., 40 µL per well plated in suitable plate, e.g., a black polystyrene 384-well plate (Corning). Equal volume of the serial diluted peptide was added to the plate and incubated protected from light for 15 minutes prior to read. Reads were performed on a Spectramax M5 (Molecular Devices) in duplicate. Suitable probe was FITC-PEG1-PQ-S5-ILD-S5-HVRRVWR (SEQ ID NO: 1) (hydrocarbon staple formed by two S5 via olefin metathesis) and/or FITC-bA-PQ-S5-ILD-S5-HVRRVWR (SEQ ID NO: 3) (hydrocarbon staple formed by two S5 via olefin metathesis). […] Another peptide, FPO217c (Ac-AR_8ILDAHIM$B5$RVW (SEQ ID NO: 280), with N-terminal proline removed and valine replaced with isoleucine compared to FP0025c) was prepared.

Binder | FP EC50
B1 | 100 to 500 nM
AXILDAHIXRVW (not fully specified; Ac-A-MG-I-L-D-A-H-I-MF-R-V-W-NH2; carbamate staple MG/MF) [FP0594c] | 100 to 500 nM
Ac-A[R7]ILDAHI[MF]RVW-NH2 (staple 2-9; also: carbamate staple, olefin geometry not assigned) [FP0503c] | 100 to 500 nM
Ac-A[MI]ILDAHI[S5]RVW-NH2 (staple 2-9; also: carbamate staple, isomer 1, olefin geometry not assigned) [FP0506c Isomer 1] | 100 to 500 nM
Ac-A[R8]ILDAHI[MB(4)]R[αMeV]W-NH2 (staple 2-9) [FP0632c] | 100 to 500 nM
Ac-A[R8]ILDAHI[MB(5)]RV[dW]-NH2 (staple 2-9) [FP0630c] | 100 to 500 nM
Ac-A[R7″]ILDAHI[MA]RVW-NH2 (staple 2-9; not fully specified; printed as Ac-A-R7-I-L-D-A-H-I-MA-R-V-W-NH2) [FP0516a Isomer 1] | 100 to 500 nM
Ac-A[R8]I[αMeL]DAHI[MB(4)]RVW-NH2 (staple 2-9) [FP0644c] | 100 to 500 nM
B2 | 100 to 500 nM
Ac-A[R6]ILDAHI[MF]RVW-NH2 (staple 2-9; also: carbamate staple, isomer 2, olefin geometry not assigned, also called FP0502c (Peak 2)) [FP0502c Isomer 2] | 100 to 500 nM
Ac-A[ME]ILDAHI[S8]RVW-NH2 (staple 2-9) [FP0335a] | 100 to 500 nM
Ac-A[R7″]ILDAHI[MA]RVW-NH2 (staple 2-9) [FP0516c] | 100 to 500 nM
AXILDAHIXRVW (not fully specified; Ac-A-R7-I-L-D-A-H-I-MF-R-V-W-NH2; amino staple R7/MF) [FP0503a] | 100 to 500 nM
AXILDAHIXRVW (not fully specified; Ac-A-R5-I-L-D-A-H-I-MF-R-V-W-NH2; carbamate staple R5/MF) [FP0501c] | 100 to 500 nM
B3 | 100 to 500 nM
Ac-A[R8]ILNAHI[MB(14)]RVW-NH2 (staple 2-9) [FP0218c] | 100 to 500 nM
Ac-A[R8]ILDAHI[MB(4)]K(Me)VW-NH2 (staple 2-9) [FP0636c] | 100 to 500 nM
Ac-A[R8]ILDAHI[MB(11)][1Nal]VW-NH2 (staple 2-9; also: carbamate staple R8/MB (-N(R')-C(O)-O-), isomer not specified) [FP0365c] | 100 to 500 nM
AXIADAHIXRVW (not fully specified; Ac-A-R8-I-A-D-A-H-I-MB-R-V-W-NH2; carbamate staple R8/MB) [FP0406c] | 100 to 500 nM
Ac-A[R8]ILTAHI[MB(14)]RVW-NH2 (staple 2-9) [FP0219c] | 100 to 500 nM
AXILDAHIXAVW (not fully specified; Ac-A-R8-I-L-D-A-H-I-MB-A-V-W-NH2; carbamate staple R8/MB) [FP0410c] | 100 to 500 nM
Ac-A[R8]ILDAHI[MB(4)]KVW-NH2 (staple 2-9) [FP0635c] | 100 to 500 nM
AXILDAHIXRVW (not fully specified; Ac-A-MA-I-L-D-A-H-I-MI-R-V-W-NH2; carbamate staple MA/MI) [FP0625c] | 100 to 500 nM
AXILDAHIXRVW (not fully specified; Ac-A-ME-I-L-D-A-H-I-S8-R-V-W-NH2; carbamate staple ME/S8) [FP0335c Isomer 1] | 100 to 500 nM

molecular target: T1, full-length beta-catenin; experiment: competition FP
Protocol: as §1

Binder | EC50
Ac-PQ[MA]ILD[R5]HVRRVWR-NH2 (staple 3-7) [FP0723c] | 1400 nM
Ac-PQ[R5]ILD[MA]HVRRVWR-NH2 (staple 3-7) [FP0733c] | 920 nM
Ac-PQ[MA]ILD[R7]HVRRVWR-NH2 (staple 3-7) [FP0727c] | 520 nM
Ac-PQ[MA]ILD[S5]HVRRVWR-NH2 (staple 3-7) [FP0724c] | 540 nM
Ac-PQ[R4″]ILD[MA]HVRRVWR-NH2 (staple 3-7) [FP0731c] | 4700 nM
Ac-PQ[MA]ILD[S7]HVRRVWR-NH2 (staple 3-7) [FP0728c] | 2100 nM
Ac-PQ[MA]ILD[R4]HVRRVWR-NH2 (staple 3-7) [FP0721c] | 1300 nM

molecular target: T1, full-length beta-catenin; experiment: competition FP, grade of FP EC50 (+++: <=100 nM)
Protocol: as §1

Binder | FP EC50
AXILDAHIXRVW (not fully specified; Ac-A-MA-I-L-D-A-H-I-MC-R-V-W-NH2; carbamate staple MA/MC) [FP0616c] | ≤ 100 nM
Ac-A[R8]ILDAHI[MB(4)][Arg(Me2a)]VW-NH2 (staple 2-9) [FP0639c] | ≤ 100 nM
Ac-A[R8]ILDAHI[MB(4)][hArg]VW-NH2 (staple 2-9) [FP0634c] | ≤ 100 nM
Ac-A[R8]ILDAHI[MB(4)][Arg(Me2s)]VW-NH2 (staple 2-9) [FP0640c] | ≤ 100 nM
AXILDAHIXRVW (not fully specified; Ac-A-MA-I-L-D-A-H-I-MF-R-V-W-NH2; carbamate staple MA/MF) [FP0611c] | ≤ 100 nM
AXILDAHIXRVW (not fully specified; Ac-A-MA-I-L-D-A-H-I-MB-R-V-W-NH2; carbamate staple MA/MB) [FP0617c] | ≤ 100 nM
Ac-A[MF]ILDAHI[MB(5)]RVW-NH2 (staple 2-9) [FP0626c] | ≤ 100 nM
AXILDAHIXRVW (not fully specified; Ac-A-ME-I-L-D-A-H-I-MC-R-V-W-NH2; carbamate staple ME/MC) [FP0605c] | ≤ 100 nM
Ac-A[R8]ILD[Aib]HI[MB(15)]RVW-NH2 (staple 2-9) [FP0645c] | ≤ 100 nM

molecular target: T1, full-length beta-catenin; experiment: competition FP, grade of FP EC50 (+: 500-5000 nM)
Protocol: as §1

Binder | FP EC50
Ac-PQ[MA]ILD[R5]HVRRVWR-NH2 (staple 3-7) [FP0723c] | 500 to 5000 nM
Ac-PQ[R5]ILD[MA]HVRRVWR-NH2 (staple 3-7) [FP0733c] | 500 to 5000 nM
Ac-PQ[MA]ILD[R7]HVRRVWR-NH2 (staple 3-7) [FP0727c] | 500 to 5000 nM
Ac-PQ[MA]ILD[S5]HVRRVWR-NH2 (staple 3-7) [FP0724c] | 500 to 5000 nM
Ac-PQ[R4″]ILD[MA]HVRRVWR-NH2 (staple 3-7) [FP0731c] | 500 to 5000 nM
Ac-PQ[MA]ILD[S7]HVRRVWR-NH2 (staple 3-7) [FP0728c] | 500 to 5000 nM
Ac-PQ[MA]ILD[R4]HVRRVWR-NH2 (staple 3-7) [FP0721c] | 500 to 5000 nM
